Target: T1, his-tagged F110A variant of human ferrochelatase (FECH), recombinant from E. coli (human, UniProt P22830 55-423, F110A)
T1 sequence (looked up): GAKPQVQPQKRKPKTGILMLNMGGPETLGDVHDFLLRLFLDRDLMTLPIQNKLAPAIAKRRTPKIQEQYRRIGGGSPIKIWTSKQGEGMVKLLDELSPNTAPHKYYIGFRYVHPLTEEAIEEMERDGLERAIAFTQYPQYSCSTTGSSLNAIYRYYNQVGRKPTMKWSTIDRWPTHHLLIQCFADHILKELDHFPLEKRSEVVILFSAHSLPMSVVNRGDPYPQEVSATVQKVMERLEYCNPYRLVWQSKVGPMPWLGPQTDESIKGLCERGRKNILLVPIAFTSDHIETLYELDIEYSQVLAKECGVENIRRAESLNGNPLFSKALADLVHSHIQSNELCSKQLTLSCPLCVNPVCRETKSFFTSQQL
Assay: pull-down

fold of PGRMC1 recovered (against wild-type FECH): > 2 fold
B1: non-tagged full length human PGRMC1, recombinant from E. coli (natural protein)
chain: not shown

From PMC5278647 (Biochemistry, 2016)
